# Laboratory results reported in the supplement of paper PMC11246515.
# ± gives the standard deviation of the averaged measurements.
# Assay: total protein half-life in vivo (active degradation + dilution); higher = more stable protein
# [1] = E. coli NCM3722 delta-clpP delta-lon delta-hslV, growth: N-lim chemostat, doubling time 6 h
# [2] = E. coli NCM3722 delta-clpP, growth: N-lim chemostat, doubling time 6 h
# [3] = E. coli NCM3722 delta-hslV, growth: N-lim chemostat, doubling time 6 h
# [4] = E. coli NCM3722 delta-lon, growth: N-lim chemostat, doubling time 6 h
# [5] = E. coli NCM3722 delta-smpB, growth: N-lim chemostat, doubling time 6 h
# [6] = wild type E. coli NCM3722, growth: C-lim chemostat, doubling time 3 h
# [7] = wild type E. coli NCM3722, growth: C-lim chemostat, doubling time 6 h
# [8] = wild type E. coli NCM3722, growth: C-lim chemostat, doubling time 12 h
# [9] = wild type E. coli NCM3722, growth: N-lim chemostat, doubling time 6 h
# [10] = wild type E. coli NCM3722, growth: N-lim chemostat, doubling time 12 h
# [11] = wild type E. coli NCM3722, growth: P-lim chemostat, doubling time 6 h
# [12] = wild type E. coli NCM3722, growth: P-lim chemostat, doubling time 12 h
Sequence,total protein half-life in vivo [1],total protein half-life in vivo [2],total protein half-life in vivo [3],total protein half-life in vivo [4],total protein half-life in vivo [5],total protein half-life in vivo [6],total protein half-life in vivo [7],total protein half-life in vivo [8],total protein half-life in vivo [9],total protein half-life in vivo [10],total protein half-life in vivo [11],total protein half-life in vivo [12]
MAGNDREPIGRKGKPTRPVKQKVSRRRYEDDDDYDDYDDYEDEEPMPRKGKGKGKGRKPRGKRGWLWLLLKLAIVFAVLIAIYGVYLDQKIRSRIDGKVWQLPAAVYGRMVNLEPDMTISKNEMVKLLEATQYRQVSKMTRPGEFTVQANSIEMIRRPFDFPDSKEGQVRARLTFDGDHLATIVNMENNRQFGFFRLDPRLITMISSPNGEQRLFVPRSGFPDLLVDTLLATEDRHFYEHDGISLYSIGRAVLANLTAGRTVQGASTLTQQLVKNLFLSSERSYWRKANEAYMALIMDARYSKDRILELYMNEVYLGQSGDNEIRGFPLASLYYFGRPVEELSLDQQALLVGMVKGASIYNPWRNPKLALERRNLVLRLLQQQQIIDQELYDMLSARPLGVQPRGGVISPQPAFMQLVRQELQAKLGDKVKDLSGVKIFTTFDSVAQDAAEKAAVEGIPALKKQRKLSDLETAIVVVDRFSGEVRAMVGGSEPQFAGYNRAMQARRSIGSLAKPATYLTALSQPKIYRLNTWIADAPIALRQPNGQVWSPQNDDRRYSESGRVMLVDALTRSMNVPTVNLGMALGLPAVTETWIKLGVPKDQLHPVPAMLLGALNLTPIEVAQAFQTIASGGNRAPLSALRSVIAEDGKVLYQSFPQAERAVPAQAAYLTLWTMQQVVQRGTGRQLGAKYPNLHLAGKTGTTNNNVDTWFAGIDGSTVTITWVGRDNNQPTKLYGASGAMSIYQRYLANQTPTPLNLVPPEDIADMGVDYDGNFVCSGGMRILPVWTSDPQSLCQQSEMQQQPSGNPFDQSSQPQQQPQQQPAQQEQKDSDGVAGWIKDMFGSN,6.443 ± 0.011 h,6.43 ± 0.51 h,6.2211 ± 0.00055 h,6.266 ± 0.031 h,6.19 ± 0.56 h,3.17 ± 0.036 h,6.09 ± 0.71 h,12.4 ± 1.3 h,6.01 ± 0.19 h,12.5 ± 0.15 h,6.15 ± 0.58 h,12.4 ± 0.17 h
MAGNTIGQLFRVTTFGESHGLALGCIVDGVPPGIPLTEADLQHDLDRRRPGTSRYTTQRREPDQVKILSGVFEGVTTGTSIGLLIENTDQRSQDYSAIKDVFRPGHADYTYEQKYGLRDYRGGGRSSARETAMRVAAGAIAKKYLAEKFGIEIRGCLTQMGDIPLDIKDWSQVEQNPFFCPDPDKIDALDELMRALKKEGDSIGAKVTVVASGVPAGLGEPVFDRLDADIAHALMSINAVKGVEIGDGFDVVALRGSQNRDEITKDGFQSNHAGGILGGISSGQQIIAHMALKPTSSITVPGRTINRFGEEVEMITKGRHDPCVGIRAVPIAEAMLAIVLMDHLLRQRAQNADVKTDIPRW,5.73 ± 0.43 h,5.29 ± 0.1 h,5.199 ± 0.021 h,,4.78 ± 0.14 h,3.41 ± 0.23 h,5.92 ± 0.13 h,12 ± 0.84 h,5.09 ± 0.23 h,9.61 ± 0.79 h,6.51 ± 0.34 h,12.6 ± 1.4 h
MAGPVLYQDRAMKQITFAPRNHLLTNTNTWTPDSQWLVFDVRPSGASFTGETIERVNIHTGEVEVIYRASQGAHVGVVTVHPKSEKYVFIHGPENPDETWHYDFHHRRGVIVEGGKMSNLDAMDITAPYTPGVLRGGSHVHVFSPNGERVSFTYNDHVMHELDPALDLRNVGVAAPFGPVNVQKQHPREYSGSHWCVLVSKTTPTPQPGSDEINRAYEEGWVGNHALAFIGDTLSPKGEKVPELFIVELPQDEAGWKAAGDAPLSGTETTLPAPPRGVVQRRLTFTHHRAYPGLVNVPRHWVRCNPQGTQIAFLMRDDNGIVQLWLISPQGGEPRQLTHNKTDIQSAFNWHPSGEWLGFVLDNRIACAHAQSGEVEYLTEHHANSPSADAVVFSPDGQWLAWMEGGQLWITETDR,5.27 ± 0.21 h,4.73 ± 0.52 h,4.97 ± 0.094 h,4.8 ± 0.15 h,4.67 ± 0.09 h,3.17 ± 0.043 h,5.92 ± 0.44 h,11.1 ± 1.4 h,4.8 ± 0.56 h,8.45 ± 0.1 h,6.23 ± 0.21 h,11.3 ± 0.79 h
MAGWFELSKSSDNQFRFVLKAGNGETILTSELYTSKTSAEKGIASVRSNSPQEERYEKKTASNGKFYFNLKAANHQIIGSSQMYATAQSRETGIASVKANGTSQTVKDNT,,5.5 ± 0.46 h,6 ± 0.94 h,6.31 ± 1.2 h,5.48 ± 0.5 h,3.2 ± 0.24 h,5.83 ± 0.21 h,11.2 ± 0.74 h,5.24 ± 0.059 h,9.51 ± 0.29 h,5.54 ± 0.092 h,11 ± 0.41 h
MAHPPRLNDDKPVIWTVSVTRLFELFRDISLEFDHLANITPIQLGFEKAVTYIRKKLANERCDAIIAAGSNGAYLKSRLSVPVILIKPSGYDVLQALAKAGKLTSSIGVVTYQETIPALVAFQKTFNLRLDQRSYITEEDARGQINELKANGTEAVVGAGLITDLAEEAGMTGIFIYSAATVRQAFSDALDMTRMSLRHNTHDATRNALRTRYVLGDMLGQSPQMEQVRQTILLYARSSAAVLIEGETGTGKELAAQAIHREYFARHDARQGKKSHPFVAVNCGAIAESLLEAELFGYEEGAFTGSRRGGRAGLFEIAHGGTLFLDEIGEMPLPLQTRLLRVLEEKEVTRVGGHQPVPVDVRVISATHCNLEEDMQQGRFRRDLFYRLSILRLQLPPLRERVADILPLAESFLKVSLAALSAPFSAALRQGLQASETVLLHYDWPGNIRELRNMMERLALFLSVEPTPDLTPQFMQLLLPELARESAKTPAPRLLTPQQALEKFNGDKTAAANYLGISRTTFWRRLKS,4.26 ± 0.052 h,2.4 ± 0.6 h,,2.71 h,2.277 ± 0.021 h,2.18 ± 0.55 h,4.02 ± 0.54 h,5.89 ± 0.42 h,2.53 ± 0.25 h,4.31 h,,
MAHRPRWTLSQVTELFEKPLLDLLFEAQQVHRQHFDPRQVQVSTLLSIKTGACPEDCKYCPQSSRYKTGLEAERLMEVEQVLESARKAKAAGSTRFCMGAAWKNPHERDMPYLEQMVQGVKAMGLEACMTLGTLSESQAQRLANAGLDYYNHNLDTSPEFYGNIITTRTYQERLDTLEKVRDAGIKVCSGGIVGLGETVKDRAGLLLQLANLPTPPESVPINMLVKVKGTPLADNDDVDAFDFIRTIAVARIMMPTSYVRLSAGREQMNEQTQAMCFMAGANSIFYGCKLLTTPNPEEDKDLQLFRKLGLNPQQTAVLAGDNEQQQRLEQALMTPDTDEYYNAAAL,3.43 ± 0.23 h,2.236 ± 0.018 h,0.669 h,0.723 ± 0.084 h,0.799 ± 0.048 h,0.8031 ± 0.0044 h,1.3 ± 0.08 h,1.44 ± 0.52 h,0.897 ± 0.17 h,1.09 ± 0.08 h,1.44 ± 0.36 h,2.68 ± 0.76 h
